{"source": "patent US8129557B2", "about": "“Phosphonic acid diester derivative and method for producing thereof” (priority 2005, dated 2012)", "substrate": "Cc1cc(=O)oc2cc(NC(=O)CC[C@H](N)C(=O)O)ccc12", "test": "Hydrolytic assay of E. coli GGT (Michaelis constant of substrate)", "assay_type": "biochemical, Escherichia coli K-12", "conditions": "other: E. coli GGT, pH 5.5, 25° C.", "procedure": "In the experiment, at first, Michaelis constants (Km) for 7-(γ-L-glutamylamino)-4-methylcoumarin as substrate were measured by a fluorescence method [Smith, G. D.; Ding, J. L.; Peters, T. J. Anal. Biochem. 100, 136-139 (1979)] for the hydrolytic activities of E-coli GGT and human GGT.\nIn the hydrolytic assay of E. coli GGT, 10 μL of a […] enzyme solution was added to a 100 mM succinic acid-sodium hydroxide buffer solution (pH 5.5) in a total volume of 1 mL containing 100 μL of 2 μM substrate aqueous solution. The product, 7-amino-4-methylcoumarin (AMC), released along with the enzyme reaction was traced continuously at 25° C. using a fluorospectrophotometer F-2000 manufactured by Hitachi Ltd. (excitation wavelength: 350 nm, emission wavelength: 440 nm). The AMC concentration was separately measured by forming a calibration curve showing the relation of the fluorescence intensity (F) and the concentration (C) using standard solutions and was calculated from the relational expression (1) of the fluorescence intensity alteration (ΔF) and concentration alteration (ΔC).\n[Expression 1] ΔF/ΔC=0.11 nM^−1 (1)\nThe fluorescence intensity was proportional to the AMC concentration up to 2.0 μM. As a result, Km value for 7-(γ-L-glutamylamino)-4-methylcoumarin was 0.2 μM under this condition.", "data": [{"protein": "E. coli GGT (Escherichia coli K-12) (protein, was used as a purified enzyme of E-coli GGT; made in house) chain 1: APPAPPVSYGVEEDVFHPVRAKQGMVASVDATATQVGVDILKEGGNAVDAAVAVGYALAVTHPQAGNLGGGGFMLIRSKNGNTTAIDFREMAPAKATRDMFLDDQGNPDSKKSLTSHLASGTPGTVAGFSLALDKYGTMPLNKVVQPAFKLARDGFIVNDALADDLKTYGSEVLPNHENSKAIFWKEGEPLKKGDTLVQANLAKSLEMIAENGPDEFYKGTIAEQIAQEMQKNGGLITKEDLAAYKAVERTPISGDYRGYQVYSMPPPSSGGIHIVQILNILENFDMKKYGFGSADAMQIMAEAEKYAYADRSEYLGDPDFVKVPWQALTNKAYAKSIADQIDINKAKPSSEIRPGKLAPYESNQ chain 2: TTHYSVVDKDGNAVAVTYTLNTTFGTGIVAGESGILLNNQMDDFSAKPGVPNVYGLVGGDANAVGPNKRPLSSMSPTIVVKDGKTWLVTGSPGGSRIITTVLQMVVNSIDYGLNVAEATNAPRFHHQWLPDELRVEKGFSPDTLKLLEAKGQKVALKEAMGSTQSIMVGPDGELYGASDPRSVDDLTAGY", "values": [{"measurement": "Km", "result": 0.2, "unit": "µM"}]}]}
